The values that follow come from patent US20240092876A1 (priority 2020, published 2024).

The target in experiment [1] is N2 neuraminidase from A/Washington/01/2007 (Influenza A virus A/Washington/01/2007). Put plainly: flow cytometry on NA-expressing cells. For orientation: In flow cytometry, cells or beads pass a laser one at a time.
Experiment [2] deals with N2_A_Leningrad_134_17_57 (influenza A virus). Put plainly: flow cytometry on NA-expressing cells.

B1: FNI19-v3 (antibody, V domains shown)
VH: QVQLVQSGAEVKKPGSSVKVSCKASEGTFNKYTISWVRQAPGQGLEWMGGIIPISGIANYAQKFQGRVAITADESTTTAYMELSSLRSEDSAVYYCATAVSDYFNRDLGWEDYYFPFWGQGTLVTVSS
VL: EIVMTQSPATLSVSPGARATLFCRASRSVSDNLAWYQQKPGQAPRLLIFGASTRATGVPARFSGSGSGTQFTLTISSLQSEDFAVYYCQHYNIWPPWTFGQGTKVEIK
B1: the MFI normalized vs wt in experiment [1] was 0.83; in experiment [2], 1.04.
